These results are taken from article PMC5354511, “Autophosphorylation-based Calcium (Ca^2+) Sensitivity Priming and Ca^2+/Calmodulin Inhibition of Arabidopsis thaliana Ca^2+-dependent Protein Kinase 28 (CPK28)*^([image sbox.jpg])^♦” (The Journal of Biological Chemistry, 2017).

This test concerns the target T1, recombinant CaM6 (untagged) (UniProt Q03509 1-149).
T1 construct: calmodulin 6 (CaM6), 'a conserved CaM isoform'; recombinant, untagged; also called Ca2+/CaM; source: E. coli NiCO (DE3), purified (heat step, phenyl-Sepharose)
As to the kind of experiment: native gel or EMSA; CaM (240 pmol) with different amounts of LL22 or pLL22 peptide in the ratios indicated, 20 μl, 60 min, then native PAGE. The conditions noted are these: both partners purified. Background: In EMSA bound probe runs differently from free probe, usually more slowly.

As to LRQFVRYSRLKQFALRALASTL (source: synthetic peptide (LifeTein)) [LL22 peptide (CPK28 autoinhibitory junction)], the “stoichiometry N” value worked out at 1.

As usually defined, the stoichiometry N is a count of units in the complex or per binding partner.
